Measurements as given in patent US20220251222A1, “IL-6Ralpha/IL-8R BISPECIFIC BINDING AGENTS FOR INHIBITING CANCER CELL MIGRATION” (The Johns Hopkins University, priority 2019, published 2022).

B1: 10H2: anti-IL-8RB monoclonal antibody, expressed as hIgG1 (antibody, V domains shown)
VH: EVQLVETGGRLVQPKGSLKLSCAVSGITFKTNAMNWVRQAPGKGLEWVARIRTKSYNYATYYADSVKDRFTISRDDSQSILYLQMNNLKTEDTAMYHCVREGRWGQGTLVTVSA
VL: QAVVTQESALTTSPGETVTLTCRSSTGAVTTSNYANWVQEKPDHLFTGLIGGTNNRPPGVPARFSGSLIGDKAALTITGAQIEDEAIYFCALWYSNHLVFGGGTKLTVL
B2: IL-6Rα ECD: recombinant human IL-6Rα extracellular domain, residues 89-303, biotinylated (protein)
chain: LLVDVPPEEPQLSCFRKSPLSNVVCEWGPRSTPSLTTKAVLLVRKFQNSPAEDFQEPCQYSQESQKFSCQLAVPEGDSSFYIVSMCVASSVGSKFSKTQTFQGCGILQPDPPANITVTAVARNPRWLSVTWQDPHSWNSSFYRLRFELRYRAERSKTFTTWMVKDLQHHCVIHDAWSGLRHVVQLRAQEEFGQGEWSEWSPEAMGTPWTESRSPPLNDIFEAQKIEWHEHHHHHH

Columns and labels:
IL-8R = target: T1, IL-8R (Homo sapiens, UniProt P25025); assay: Cell surface binding on IL-6Rα−/IL-8R+ HEK 293T cells (flow cytometry); conditions: 2 hr at 4° C.
T1 construct: expressed in transfected cells; host or cells: HEK 293T, lentiviral transduction (pCDH backbone)
T1 sequence (P25025 1-360): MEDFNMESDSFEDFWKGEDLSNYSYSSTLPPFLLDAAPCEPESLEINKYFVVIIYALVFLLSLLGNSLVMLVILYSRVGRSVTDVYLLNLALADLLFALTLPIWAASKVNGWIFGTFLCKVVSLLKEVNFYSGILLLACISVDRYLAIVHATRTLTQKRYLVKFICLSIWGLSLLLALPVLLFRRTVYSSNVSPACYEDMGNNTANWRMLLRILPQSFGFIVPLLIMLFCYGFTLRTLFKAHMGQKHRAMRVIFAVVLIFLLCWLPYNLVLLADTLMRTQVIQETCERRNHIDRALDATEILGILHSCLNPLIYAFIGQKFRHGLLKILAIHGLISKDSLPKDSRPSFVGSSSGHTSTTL
Excerpt: GeneJuice (Sigma Aldrich) was used as the transfection reagent.
Mean fluorescence intensity (MFI) of unstimulated cells was subtracted.

[1] = tested on: IL-6-mediated phosphorylation of STAT3; assay: IL-6 signaling inhibition assay (STAT3 phosphorylation) in HepG2 cells; type: cell-based, human; conditions: IL-6 10 nM, 20 min at 37° C.
Procedure: HepG2 cells were then fixed with 1.6% PFA, permeabilized with methanol and incubated with 1:50 dilution of Alexa Fluor 647 conjugated anti-pSTAT3 antibody (BD Biosciences, clone 4/P-STAT3) in PBSA for 2 h at room temperature. […] IC50 values were calculated using a first order logistic fitting models in GraphPad Prism data analysis software. Mean fluorescence intensity (MFI) of unstimulated cells was subtracted. Experiments were conducted in triplicate and performed twice times with similar results.

IL-6 binding to IL-6Rα = target: T2, IL-6 binding to IL-6Rα (Homo sapiens, UniProt P08887); assay: IL-6 cell surface binding inhibition on IL-6Rα+/IL-8R− HEK 293T cells; conditions: IL-6Rα+/IL-8R− 293 T cells, biotinylated IL-6 100 nM
T2 construct: expressed in transfected cells; host or cells: HEK 293T, lentiviral transduction (IL-6Rα+/IL-8R−)
T2 sequence (P08887 20-468): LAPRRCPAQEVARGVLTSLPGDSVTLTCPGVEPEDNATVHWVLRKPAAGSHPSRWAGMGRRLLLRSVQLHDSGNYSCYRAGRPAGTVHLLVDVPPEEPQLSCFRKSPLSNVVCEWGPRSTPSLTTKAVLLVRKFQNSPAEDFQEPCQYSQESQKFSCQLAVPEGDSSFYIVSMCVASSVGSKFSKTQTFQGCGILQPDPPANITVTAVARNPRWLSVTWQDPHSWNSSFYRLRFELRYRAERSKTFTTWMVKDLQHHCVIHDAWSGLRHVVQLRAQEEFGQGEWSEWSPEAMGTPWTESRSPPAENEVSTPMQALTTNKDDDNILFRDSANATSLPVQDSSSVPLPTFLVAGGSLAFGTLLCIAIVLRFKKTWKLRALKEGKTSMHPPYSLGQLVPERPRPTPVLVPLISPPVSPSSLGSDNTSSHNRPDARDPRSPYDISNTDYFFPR
Procedure: Cells were then washed and incubated with 1:200 dilution of Alexa Fluor 647-conjugated streptavidin (Fisher Scientific, cat #: S21374) in PBSA for 15 min at 4° C. […] Curves were fitted to a first-order logistic model and IC50 values were calculated using GraphPad Prism data analysis software. Mean fluorescence intensity (MFI) of unstimulated cells was subtracted. […]

human IL-6Rα ECD = target: T3, human IL-6Rα ECD (Homo sapiens, UniProt P08887); assay: Bio-layer interferometry (BLI) binding to immobilized IL-6Rα ECD; conditions: immobilized biotinylated IL-6Rα ECD, PBSA, 25° C., equilibrium titration
T3 construct: residues 89-303 of the mature protein; hexahistidine (C); made in house; host or cells: HEK 293F
T3 sequence (P08887 108-322): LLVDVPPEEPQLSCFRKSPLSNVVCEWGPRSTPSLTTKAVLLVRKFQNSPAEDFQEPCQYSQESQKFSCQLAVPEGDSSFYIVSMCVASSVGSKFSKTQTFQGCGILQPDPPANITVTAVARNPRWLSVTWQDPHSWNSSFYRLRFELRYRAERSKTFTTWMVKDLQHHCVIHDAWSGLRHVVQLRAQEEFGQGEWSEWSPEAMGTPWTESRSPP
Procedure: Biotinylated human IL-6Rα ECD was immobilized to streptavidin-coated tips for analysis on an Octet® Red96 BLI instrument (ForteBio). Less than 5 signal units (nm) of receptor was immobilized to minimize mass transfer effects. Tips were exposed to serial dilutions of the anti-IL-6R antibody tocilizumab, the anti-IL-8R antibody 10H2, BS1, or BS2 in a 96-well plate for 300 s and dissociation was measured for 600 s. Surface regeneration for all interactions was conducted using 15 s exposure to 0.1 M glycine pH 3.0. Experiments were carried out in PBSA (phosphate-buffered saline [PBS] pH 7.3 plus 0.1% bovine serum albumin [BSA, Thermo]) at 25° C. Data was visualized and processed using the Octet® Data Analysis software version 7.1 (ForteBio). Equilibrium titration curve fitting and equilibrium dissociation constant (KD) value determination was implemented in GraphPad Prism software using a first-order logistic model. Experiments were reproduced two times with similar results.

IL-6/IL-6Rα interaction = target: T4, IL-6/IL-6Rα interaction (Homo sapiens, UniProt P08887); assay: Yeast cell surface competition of IL-6/IL-6Rα binding; conditions: IL-6-displaying yeast, biotinylated IL-6Rα ECD 300 nM
T4 construct: residues 89-303 of the mature protein; hexahistidine (C); made in house; host or cells: HEK 293F (IL-6Rα ECD)
T4 sequence (P08887 108-322): T3 sequence (P08887 108-322)
Procedure: Approximately 1×10^5 human IL-6-displaying yeast per well were plated in a 96-well plate and washed with PBSA. Yeast cells were incubated with saturating concentrations of biotinylated human IL-6Rα (300 nM) and serial dilutions of unlabeled competitor antibody (either the anti-IL-6R antibody tocilizumab, the anti-IL-8R antibody 10H2, BS1, or BS2) in PBSA for 2 hours at room temperature. Cells were then washed and stained with a 1:200 dilution of Alexa647-conjugated streptavidin (Thermo) in PBSA for 15 min at 4° C. Cells were washed again and assessed for human IL-6Rα binding on a CytoFLEX flow cytometer (Beckman Coulter). Background-subtracted fluorescent signal as a fraction of receptor subunit binding in the absence of competitor antibody was plotted. Curves were fitted to a first order logistic model and half maximal inhibitory concentrations (IC50s) were computed using GraphPad Prism. Assays were performed in triplicate and repeated two times with consistent results.

Human IL-6 = target: T5, Human IL-6 (Homo sapiens, UniProt P05231); assay: Yeast cell surface affinity titration of IL-6Rα ECD on IL-6-displaying yeast; type: binding; conditions: 2 hours at room temperature, flow cytometry; read-out: KD of soluble IL-6Rα ECD on IL-6-displaying yeast
T5 construct: Human IL-6 (residues 3-185) was cloned into the pCT302 vector; made in house; host or cells: yeast (surface display)
Procedure: Human IL-6 (residues 3-185) was cloned into the pCT302 vector and presented on the surface of yeast, as described previously. (See Boder E T, Wittrup K D. Yeast surface display for screening combinatorial polypeptide libraries. Nat Biotechnol. 1997 June; 15(6):553-557. PMID: 9181578). Yeast displaying human IL-6 were incubated in PBSA containing serial dilutions of recombinant IL-6Rα ECD for 2 hours at room temperature. Cells were then washed and stained with a 1:200 dilution of Alexa647-conjugated streptavidin (Thermo) in PBSA for 15 min at 4° C. After a final wash, cells were analyzed for antibody binding using a CytoFLEX flow cytometer (Beckman Coulter).

T5 sequence (P05231 30-212): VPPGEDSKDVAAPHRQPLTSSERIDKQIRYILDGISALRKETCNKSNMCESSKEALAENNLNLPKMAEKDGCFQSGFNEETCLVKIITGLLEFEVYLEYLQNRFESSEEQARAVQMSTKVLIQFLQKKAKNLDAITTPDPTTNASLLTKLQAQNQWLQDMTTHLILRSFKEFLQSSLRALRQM

| Molecule | KD, binding to IL-8R on cells (IL-8R) | IC50, inhibition of STAT3 phosphorylation [1] | IC50, competition with IL-6 binding to IL-6Rα (IL-6 binding to IL-6Rα) | binding affinity (KD) to IL-6Rα via BLI (human IL-6Rα ECD) | IC50, inhibition of IL-6/IL-6Rα binding (IL-6/IL-6Rα interaction) | Kd (Human IL-6) [nM] |
| --- | --- | --- | --- | --- | --- | --- |
| B1 | only recognized IL-8R^+ cells | did not effect inhibition | no inhibitory effects | did not engage IL-6Rα | did not compete |  |
| B2 |  |  |  |  |  | 88 |
